Source: patent US20090155236

Biological target: T1, annexin V protein
T1 chain: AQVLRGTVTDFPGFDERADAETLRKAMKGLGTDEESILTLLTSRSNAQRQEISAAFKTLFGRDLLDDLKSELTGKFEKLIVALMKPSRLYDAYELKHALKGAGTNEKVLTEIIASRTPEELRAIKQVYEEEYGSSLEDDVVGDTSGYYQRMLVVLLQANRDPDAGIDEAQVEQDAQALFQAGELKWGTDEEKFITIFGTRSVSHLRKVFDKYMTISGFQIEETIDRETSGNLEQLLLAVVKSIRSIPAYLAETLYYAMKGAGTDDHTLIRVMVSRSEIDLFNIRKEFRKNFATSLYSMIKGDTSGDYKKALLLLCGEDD

B1: recombinant full-length delta PKC (protein)
chain: MAPFLRISFNSYELGSLQVEDEASQPFCAVKMKEALSTERGKTLVQKKPTMYPEWKTTFDAHIYEGRVIQIVLMRAAEDPVSEVTVGVSVLAERCKKNNGKAEFWLDLQPQAKVLMCVQYFLEDGDCKQSMRSEEEAKFPTMNRRGAIKQAKIHYIKNHEFIATFFGQPTFCSVCKEFVWQKQGYKCRQCNAAIHKKCIDKIIGRCTGTATNSRDTIFQKERFNIDMPHRFKVYNYMSPTFCDHCGSLLWGLVKQGLKCEDCGMNVHHKCREKVANLCGINQKLLAEALNQVTQRSSRKLDTTESVGIYQGFEKKPEVSGSDILDNNGTYGKIWEGSTRCTLENFTFQKVLGKGSFGKVLLAELKGKDKYFAIKCLKKDVVLIDDDVECTMVEKRVLALAWESPFLTHLICTFQTKDHLFFVMEFLNGGDLMFHIQDKGRFELYRATFYAAEIICGLQFLHSKGIIYRDLKLDNVMLDRDGHIKIADFGMCKENIFGEGRASTFCGTPDYIAPEILQGLKYSFSVDWWSFGVLLYEMLIGQSPFHGDDEDELFESIRVDTPHYPRWITKESKDIMEKLFERDPDKRLGVTGNIRIHPFFKTINWSLLEKRKVEPPFKPKVKSPSDYSNFDPEFLNEKPQLSFSDKNLIDSMDQEAFHGFSFVNPKFEQFLDI
  histone phosphorylation in an in vitro kinase reaction (SDS-PAGE, autoradiography): The addition of annexin V to delta PKC in the presence of PS/DAG (Lane 3) increases the catalytic activity of delta PKC

B2: purified full-length epsilon PKC (protein)
chain: MVVFNGLLKIKICEAVSLKPTAWSLRHAVGPRPQTFLLDPYIALNVDDSRIGQTATKQKTNSPAWHDEFVTDVCNGRKIELAVFHDAPIGYDDFVANCTIQFEELLQNGSRHFEDWIDLEPEGRVYVIIDLSGSSGEAPKDNEERVFRERMRPRKRQGAVRRRVHQVNGHKFMATYLRQPTYCSHCRDFIWGVIGKQGYQCQVCTCVVHKRCHELIITKCAGLKKQETPDQVGSQRFSVNMPHKFGIHNYKVPTFCDHCGSLLWGLLRQGLQCKVCKMNVHRRCETNVAPNCGVDRIAKVLADLGVTPDKITNSGQRRKKLIAGAESPQPASGSSPSEEDRSKSAPTSPCDQEIKELENNIRKALSFDNRGEEHRAASSPDGQLMSPGENGEVRQGQAKRLGLDEFNFIKVLGKGSFGKVMLAELKGKDEVYAVKVLKKDVILQDDDVDCTMTEKRILALARKHPYLTQLYCCFQTKDRLFFVMEYVNGGDLMFQIQRSRKFDEPRSRFYAAEVTSALMFLHQHGVIYRDLKLDNILLDAEGHCKLADFGMCKEGILNGVTTTTFCGTPDYIAPEILQELEYGPSVDWWALGVLMYEMMAGQPPFEADNEDDLFESILHDDVLYPVWLSKEAVSILKAFMTKNPHKRLGCVASQNGEDAIKQHPFFKEIDWVLLEQKKIKPPFKPRIKTKRDVNNFDQDFTREEPVLTLVDEAIVKQINQEEFKGFSYFGEDLMP
  histone phosphorylation in an in vitro kinase reaction (SDS-PAGE, autoradiography): annexin V does not increase the activity of epsilon PKC
